Experimental data as given in article PMC5705802, “A hypermorphic antioxidant response element is associated with increased MS4A6A expression and Alzheimer's disease”.

Tests used:
[1] = target: T1, NRF1;MAFG (Homo sapiens;Homo sapiens?, UniProt Q14494;O15525 1-772;1-162, |); test: competition EMSA; unlabeled vs labeled N1; legend once says NRF2 for these lanes (apparent typo); 20 mM HEPES (pH not stated), 4 mM MgCl2, 20 mM KCl, 5 mM DTT, 1 mM EDTA, 100 ug/ml BSA, 4% glycerol, poly(dI-dC), 30 min room temperature; native gel 1X TBE; conditions: protein: ivt;commercial; tags: His (plasmid pPB-N-His-NRF1, abm PV028854);; copies: 1;1; blunt
[2] = target: T2, FOS;JUN (Homo sapiens?;Homo sapiens?, UniProt P01100;P05412 1-380;1-331, |); test: competition EMSA; unlabeled vs labeled N1; 20 mM HEPES (pH not stated), 4 mM MgCl2, 20 mM KCl, 5 mM DTT, 1 mM EDTA, 100 ug/ml BSA, 4% glycerol, poly(dI-dC), 30 min room temperature; native gel 1X TBE; conditions: protein: commercial;commercial; tags: ;; copies: 1;1; blunt
T2 sequence (P01100 whole entry, chain 1 of 2): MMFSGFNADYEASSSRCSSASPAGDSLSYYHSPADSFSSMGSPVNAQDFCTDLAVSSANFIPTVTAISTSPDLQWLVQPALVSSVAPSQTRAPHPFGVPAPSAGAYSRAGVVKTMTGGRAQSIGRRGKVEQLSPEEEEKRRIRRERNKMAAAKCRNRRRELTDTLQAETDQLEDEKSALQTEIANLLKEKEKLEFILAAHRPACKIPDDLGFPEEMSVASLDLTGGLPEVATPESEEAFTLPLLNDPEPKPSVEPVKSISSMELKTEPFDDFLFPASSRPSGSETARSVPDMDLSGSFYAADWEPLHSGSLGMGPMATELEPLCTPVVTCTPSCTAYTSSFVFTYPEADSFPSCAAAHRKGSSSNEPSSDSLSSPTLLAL
T2 sequence (P05412 whole entry, chain 2 of 2): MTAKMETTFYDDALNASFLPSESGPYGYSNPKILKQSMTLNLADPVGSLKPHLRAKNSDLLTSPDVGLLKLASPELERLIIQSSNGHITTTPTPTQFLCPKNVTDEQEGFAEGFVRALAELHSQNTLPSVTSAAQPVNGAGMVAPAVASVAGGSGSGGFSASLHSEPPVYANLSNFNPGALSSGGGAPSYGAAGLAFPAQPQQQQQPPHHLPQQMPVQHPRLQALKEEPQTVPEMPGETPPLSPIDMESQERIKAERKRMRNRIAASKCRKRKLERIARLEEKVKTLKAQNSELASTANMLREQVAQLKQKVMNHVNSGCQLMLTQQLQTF

[3] = target: T3, NRF2;MAFG (Homo sapiens;Homo sapiens?, UniProt Q16236;O15525 1-605;1-162, |); test: competition EMSA; excess unlabeled vs labeled N1; 20 mM HEPES (pH not stated), 4 mM MgCl2, 20 mM KCl, 5 mM DTT, 1 mM EDTA, 100 ug/ml BSA, 4% glycerol, poly(dI-dC), 30 min room temperature; native gel 1X TBE; conditions: protein: recombinant;commercial; tags: His, Flag3 (plasmid pPROHEX-HC-Flag3-NRF2);; copies: 1;1; blunt
[4] = target: T1, NRF1;MAFG; test: competition EMSA; unlabeled vs labeled N1; 20 mM HEPES (pH not stated), 4 mM MgCl2, 20 mM KCl, 5 mM DTT, 1 mM EDTA, 100 ug/ml BSA, 4% glycerol, poly(dI-dC), 30 min room temperature; native gel 1X TBE; conditions: protein: ivt;commercial; tags: His (plasmid pPB-N-His-NRF1, abm PV028854);; copies: 1;1; blunt
[5] = target: T1, NRF1;MAFG; test: EMSA; TNT NRF1 2 ul/20 ul, 37.5 nM MAFG; unlabeled N1 also competes; 20 mM HEPES (pH not stated), 4 mM MgCl2, 20 mM KCl, 5 mM DTT, 1 mM EDTA, 100 ug/ml BSA, 4% glycerol, poly(dI-dC), 30 min room temperature; native gel 1X TBE; conditions: protein: ivt;commercial; tags: His (plasmid pPB-N-His-NRF1, abm PV028854);; copies: 1;1; label: IRDye-700 as probe; blunt
[6] = target: T2, FOS;JUN; test: EMSA; 75 nM each; unlabeled N1 also competes; 20 mM HEPES (pH not stated), 4 mM MgCl2, 20 mM KCl, 5 mM DTT, 1 mM EDTA, 100 ug/ml BSA, 4% glycerol, poly(dI-dC), 30 min room temperature; native gel 1X TBE; conditions: protein: commercial;commercial; tags: ;; copies: 1;1; label: IRDye-700 as probe; blunt
[7] = target: T3, NRF2;MAFG; test: EMSA; 75 nM NRF2, 37.5 nM MAFG; unlabeled N1 also competes; 20 mM HEPES (pH not stated), 4 mM MgCl2, 20 mM KCl, 5 mM DTT, 1 mM EDTA, 100 ug/ml BSA, 4% glycerol, poly(dI-dC), 30 min room temperature; native gel 1X TBE; conditions: protein: recombinant;commercial; tags: His, Flag3 (plasmid pPROHEX-HC-Flag3-NRF2);; copies: 1;1; label: IRDye-700 as probe; blunt

Binder	binding result [1]	binding result [2]	binding result [3]	binding result [4]	binding result [5]	binding result [6]	binding result [7]
NQO1 ARE mutant (NQO1mut) (dsDNA) DNA 1: AATCCGCAGTCACAGACTCCTACGAGAATCTGAGCCTAG DNA 2: CTAGGCTCAGATTCTCGTAGGAGTCTGTGACTGCGGATT	no binding	no binding	–	–	–	–	–
MS4A6A ARE rs667897A (dsDNA) DNA 1: CTGCGCTCCAAACCCGCTGTGTCATACCATACCGGATGT DNA 2: ACATCCGGTATGGTATGACACAGCGGGTTTGGAGCGCAG	–	binds	binds	binds	–	–	–
MS4A6A rs667897G (dsDNA) DNA 1: CTGCGCTCCAAACCCGCTGTGTCGTACCATACCGGATGT DNA 2: ACATCCGGTATGGTACGACACAGCGGGTTTGGAGCGCAG	–	no binding	no binding	–	–	–	–
NQO1 ARE WT (NQO1WT) (dsDNA) DNA 1: AATCCGCAGTCACAGTGACTCAGCAGAATCTGAGCCTAG DNA 2: CTAGGCTCAGATTCTGCTGAGTCACTGTGACTGCGGATT	–	–	–	–	binds	binds	binds
